Several values for one entry are separate records, joined by “and”; a condition that tells them apart may be missing. Equal values may be shown once.
What was measured:
HUVEC [1] = test: In vitro angiogenesis of HUVEC induced by FGF2 and VEGF on Matrigel; assay type: cell-based, human
Description: The purified proteins 497C-T2, 497C-T3, 497C-T4 and 497C-T5 were tested in vitro on angiogenesis of HUVEC induced by FGF2 and VEGF on Matrigel.
24 wells plates were prepared with 250 μL of BD Matrigel™/well and then incubated 30 minutes in incubator.

HUVEC cells = test: Inhibition of endothelial cell proliferation in vitro (MTT); assay type: cell-based, human
Description: HUVEC cells were cultured to confluency in complete EGM2-MV medium (Cambrex) at 37° C. and in 5% CO2 humidified atmosphere. Cells were then collected by trypsine-EDTA digestion (Versene, Eurobio). After 5 min, the enzymatic reaction was stopped by adding 3 ml of the culture medium containing 5% FCS. Cells were then centrifuged at 220 g for 10 min at room temperature, washed twice with 5 ml of culture medium, suspended in complete culture medium, counted and adjusted to 50 000 cells/ml. One hundred μL per well were then distributed to a 96-well cell culture grade micro-plate (5 000 cells/well) and incubated with different concentrations of the purified protein 497C-T2 in Tris-HCl 20 mM buffer (pH 8), containing 150 mM NaCl and urea 2M; this buffer was used as control.
After 42 hrs at 37° C., cell proliferation was measured using thiazolyl blue tetrazolium bromide (MTT) method. Briefly, MTT (Sigma) was dissolved in PBS at 5 mg/ml, the solution was filtered (0.22 μm) and 10 μl were added to each well of the 96-well micro-plates. After 3 hrs of incubation at 37° C., 5% CO2 humidified atmosphere, the micro-plates were centrifuged at 220×g for 10 min, the supernatant was discarded, and the crystals dissolved by the addition of 100 μl of DMSO to each well. The optical density (OD) at 570 nm was then measured using μQuant micro-plate reader (Bio-Tek Instrument gmbh, Colmar, France) coupled to the KC4 (Bio-Tek) software.

tumor cell line NCI-H460 = test: Proliferation of other cell lines: NCI-H460; assay type: cell-based, human; conditions: even at high concentration
CALU-6 tumors = test: CALU-6 non-small cell lung cancer xenograft in Swiss Nude mice, tumor growth; assay type: in vivo
Description: CALU-6 cells were cultured as adherent cells in complete EMEM medium (Ref. CM1MEM18-01, batch No. 462502, Eurobio, France) 10% fetal calf serum (FCS; Ref. CVFSVF00-01, batch No. 513021, Eurobio, France) under a 37° C., 5% CO2 humidified atmosphere. They were amplified in 75 cm^2-flasks to reach 90×10^6 cells.
At D0, CALU-6 cells (human lung carcinoma) were collected from 75 cm^2-flasks by removing the medium and adding 3 ml of trypsine-EDTA (Ref. CEZTDA00-0U, batch No. 633920, Eurobio, France). After 5 min of incubation at 37° C., cells had detached from the plastic and the enzymatic reaction was stopped by adding 3 ml of EMEM medium containing 10% fetal calf serum. Cells were then centrifuged at 700 g for 5 min at room temperature. They were resuspended in serum-free EMEM culture medium. Cells were counted and viability assessment by Trypan Blue exclusion (Ref. CSTCOL03-OU, batch No. 434511, Eurobio, France). The number of viable CALU-6 cells was >99%. The number of cells was then adjusted to 25×10^6 cells/ml in serum-free medium.
CALU-6 cells 5×10^6 cells/mouse in 200 μl of serum-free medium) were then implanted subcutaneously in the right flank of each mouse.
At D12 post-implantation of the CALU-6 cells, the thirty mice were randomized into six groups of 5 mice. Tumor volumes had reached 228 to 468 mm^3 and mean tumor volumes were not statistically different between groups after randomization.
Mean tumor volumes (MTV), mean relative tumor volume (MRTV) and tumor growth inhibition (T/C) were calculated as for example 7.

HUVEC [2] = test: Wound assay, migration of human endothelial cells; assay type: cell-based; conditions: 18 hours; 497C-T2 0.83 and 1.66 μM; 497C-T3 2.4 μM; 497C-T4 3.52 μM; 497C-T5 3.65 μM; C-terminal tail 4.92 μM
Description: Cell migration was tested by the wound assay described by Sato and Rifkin (J Cell Biol. 1988; 107:1199) with few modifications. HUVEC grown in growth medium EGM-2MV (Cambrex) were seeded in 24-well plates at 80 000 cells per well in 500 μL of growth medium and grown to confluence at 37° C. in a humidified atmosphere containing 5% CO2. Cells were scrapped with a plastic tip on one line only. After wounding, the culture medium was changed for fresh medium (control, FIG. 3a) or fresh medium supplemented with: • FIG. 3b: 497C-T2 20 μg/mL (0.83 μM) • FIG. 3c: 497C-T2 40 μg/mL (1.66 μM) • FIG. 3d: 497C-T3 48 μg/mL (2.4 μM) • FIG. 3e: 497C-T4 60 μg/mL (3.52 μM) • FIG. 3f: 497C-T5 61 μg/mL (3.65 μM) • FIG. 3g: C-terminal tail 63 μg/mL (4.92 μM)
After 18 hours of culture, cells were observed and photographed under the inverted microscope (Analysis, Olympus, Rungis, France).

[3] = system: fibroblast cell line MRC5; test: Proliferation of other cell lines: MRC5; assay type: cell-based; conditions: even at high concentration
[4] = IP Q2DX8, CDDP 5 mg/kg (G2), 497C-T2 10 mg/kg (G3), 497C-T2 10 mg/kg + CDDP 5 mg/kg (G4)

B1: 497C-T2: entire LEL domain of protein 497C, SEQ ID NO:3 (112 amino acids); as produced SEQ ID NO:8, with N-terminal His-Tag and C-terminal tail, 24 kD (protein, listed as Homo sapiens)
chain: MHHHHHHSSGLVPRGSGMKETAAAKFERQHMDSPDLGTDDDDKISGFVFRHEIKDTFLRTYTDAMQTYNGNDERSRAVDHVQRSLSCCGVQNYTNWSTSPYFLEHGIPPSCCMNETDCNPQDLHNLTVAATKVNQKGCYDLVTSFMETNMGIIAGDRASPQPWRYRIRILAPSTSLRPHSSTTTTTTXIRLLTKPERKLSWLLPPLSNN
modifications: X: residue not identified in the source
anti-angiogenic activity, capillary tube formation (HUVEC [1]; 497C-T2 0.27-2 μM, 497C-T3 […], 497C-T4 3.18 μM, 497C-T5 3.35 μM, C-terminal tail 4.14 μM): inhibited in vitro angiogenesis in a dose-dependent manner
inhibition of in vitro angiogenesis (HUVEC [1]; at 270 nM): small inhibition
inhibition of in vitro angiogenesis (HUVEC [1]; at 540 nM): more than 50%
potency relative to anti-VEGF mAb and/or VEGF receptor (KDR)-based peptides (HUVEC [1]; comparison with literature (Binetruy-Tournaire 2000)): at least 200 fold
IC50 (HUVEC [1]; dose-response study, read-out: IC50, inhibition of in vitro angiogenesis): < 540 nM
concentration significantly inhibiting human endothelial cell proliferation (as low as) (HUVEC cells): 500 nM
% inhibition of endothelial cell proliferation (HUVEC cells; 5 μM (122 μg) 497C-T2, 42 hrs, relative to control, 5 µM): 77% and 75%
inhibition of human endothelial cell proliferation (HUVEC cells; increasing concentrations, FIG. 1): inhibited human endothelial cell proliferation in a dose dependent manner
anti-proliferative effect (tumor cell line NCI-H460): without any detectable anti-proliferative effect
anti-tumoral activity (CALU-6 tumors; CALU-6, monotherapy (G3) or combined with CDDP (G4)): slight anti-tumoral activity
Growth inhibition based on T/C ratio, T/C ratio (%) D14 (CALU-6 tumors; [4]): 10%
Growth inhibition based on T/C ratio, T/C ratio (%) D16 (CALU-6 tumors; [4]): 33%
Growth inhibition based on T/C ratio, T/C ratio (%) D18 (CALU-6 tumors; [4]): 7%
Growth inhibition based on T/C ratio, T/C ratio (%) D20 (CALU-6 tumors; [4]): 13%
Growth inhibition based on T/C ratio, T/C ratio (%) D22 (CALU-6 tumors; [4]): 26%
Growth inhibition based on T/C ratio, T/C ratio (%) D24 (CALU-6 tumors; [4]): 24%
Growth inhibition based on T/C ratio, T/C ratio (%) D26 (CALU-6 tumors; [4]): 39%
Growth inhibition based on T/C ratio, T/C ratio (%) D28 (CALU-6 tumors; [4]): 27%
MRTV D14 (CALU-6 tumors; [4]): 1.64
MRTV D16 (CALU-6 tumors; [4]): 2.11
MRTV D18 (CALU-6 tumors; [4]): 2.34
MRTV D20 (CALU-6 tumors; [4]): 3.22
MRTV D22 (CALU-6 tumors; [4]): 3.09
MRTV D24 (CALU-6 tumors; [4]): 4.31
MRTV D26 (CALU-6 tumors; [4]): 4.60
MRTV D28 (CALU-6 tumors; [4]): 6.02
MRTV D12 (CALU-6 tumors; reference day, IP Q2DX8, CDDP 5 mg/kg (G2), 497C-T2 10 mg/kg (G3), 497C-T2 10 mg/kg + CDDP 5 mg/kg (G4)): 1
inhibition of endothelial cell migration (HUVEC [2]): inhibited human endothelial cells migration in a dose dependent manner
anti-proliferative effect [3]: without any detectable anti-proliferative effect
